In US20260234234A1 (QILU PUGET SOUND BIOTHERAPEUTICS, published 2026):

Experiments:
[1] = target: T1, Avitag_c-MYC_His6_hTSLP QB11631 with mutations of R127A + R130S (human); experiment: SPR (Biacore), hTSLP (R127A+R130S) antigen
T1 construct: Substitutions and tags already in the entry; also called hTSLP (R127A+R130S)

[2] = target: T2, cyTSLP antigen, version not stated (cynomolgus monkey, UniProt A0A7N9CAT7 29-159); experiment: SPR (Biacore)
T2 construct: Used where the text only says cyTSLP

[3] = target: T1, Avitag_c-MYC_His6_hTSLP QB11631 with …; experiment: SPR (Biacore)
[4] = target: T3, His6-tagged cyIL-33 (Ser112-Ile270), QB10976 (cynomolgus monkey); experiment: SPR, captured antibody, cyIL-33 analyte, 25 C, 1:1 fit
T3 construct: Entry includes N-terminal Avitag, FLAG and His6 tags; isoform X1, NCBI XP_005581824; also called cyIL-33 antigen
T3 chain: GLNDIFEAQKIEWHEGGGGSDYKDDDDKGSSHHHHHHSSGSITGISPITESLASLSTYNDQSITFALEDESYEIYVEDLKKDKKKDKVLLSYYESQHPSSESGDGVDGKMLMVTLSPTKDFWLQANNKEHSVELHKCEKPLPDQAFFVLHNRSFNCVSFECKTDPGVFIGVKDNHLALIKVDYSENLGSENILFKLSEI
Experimental: (§1) The polyclonal goat-anti-human IgG (Fc specific) antibodies were immobilized on a CM4 chip surface using a standard amine coupling method. […] After each cycle, the chip was regenerated with 10 mM glycine-HCl, pH 1.5. The results were analyzed using Biacore T200 evaluation software V3.2. Results were double referenced and fit to a 1:1 interaction model.
(§2) The kinetic binding data was obtained using SPR on a Biacore T200 equipment. […] The complex was allowed to associate for 3 min and dissociate for up to 1 hr. At the end of each cycle the CM4 chips were regenerated with 10 mM glycine pH1.5. The T200 Evaluation software V3.2 was used to align and double reference the data.

[5] = target: T3, His6-tagged cyIL-33 (Ser112-Ile270), …; experiment: SPR, cyIL-33 analyte
Experimental: The kinetic binding data was obtained using SPR on a Biacore T200 equipment. […] The complex was allowed to associate for 3 min and dissociate for up to 1 hr. At the end of each cycle the CM4 chips were regenerated with 10 mM glycine pH1.5. The T200 Evaluation software V3.2 was used to align and double reference the data. The results were fit to a 1:1 binding model using the global data analysis option within the software.

[6] = target: T3, His6-tagged cyIL-33 (Ser112-Ile270), …; experiment: cell-based or functional assay
[7] = target: T4, hIL-33 used in the cell-based assays of Example 13 (human, UniProt O95760 112-270); experiment: cell-based or functional assay
T4 sequence (looked up): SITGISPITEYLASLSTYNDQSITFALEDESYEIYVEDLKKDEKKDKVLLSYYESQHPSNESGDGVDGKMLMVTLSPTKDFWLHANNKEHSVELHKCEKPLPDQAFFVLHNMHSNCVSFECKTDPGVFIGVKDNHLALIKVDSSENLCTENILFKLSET

[8] = target: T5, Avitag_c-MYC_His6-tagged hIL-33 (Ser112-Thr270), QB10975 (human); experiment: SPR, captured antibody, hIL-33 analyte, 37 C, 1:1 fit
T5 construct: Entry includes N-terminal Avitag, c-MYC and His6 tags; reduced with DTT to the active form; also called active hIL-33; reduced hIL-33
T5 chain: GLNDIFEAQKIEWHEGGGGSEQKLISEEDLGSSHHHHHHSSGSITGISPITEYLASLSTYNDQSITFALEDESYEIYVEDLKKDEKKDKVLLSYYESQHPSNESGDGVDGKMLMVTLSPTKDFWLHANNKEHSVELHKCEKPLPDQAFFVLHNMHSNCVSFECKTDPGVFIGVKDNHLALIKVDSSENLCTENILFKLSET
Experimental: as §1, §2

[9] = target: T5, Avitag_c-MYC_His6-tagged hIL-33 …; experiment: SPR competition, antibody titrated against 10 nM hIL-33, over immobilised hST2-Fc
Experimental: Assessment was performed by SPR (Surface Plasmon Resonance) using Biacore 2000.
The association time was set for 2 min and the dissociation time for 5 min.

B1: anti-hTSLP QB11060, humanized antibody clone hz-3C-V6 (antibody, human IgG4 S228P, kappa, V domains shown)
VH: QVQLVQSGPEVKKPGSSVKVSCKASGYIFTDYAMHWVRQRPGQGLEWMGTFIPLLDTSDYNQNFKGRATITADKSTSTAYMELSSLRSEDTAVYYCARMGVTHSYVMDAWGQGTLVTVSS
VL: EIVLTQSPGTLSLSPGERATLSCRASQPISISVHWYQQKPGEAPRLLIYFASQSISGIPDRFSGSGSGTDFTLTISRLESEDFAVYYCQQTFSLPYTFGTGTKVEIKR
notes: hz-3C with D9P + S108L in the VH
Kd [1]: 1.62 nM | koff [1]: 0.000852 s⁻¹ | kon [1]: 527000 M⁻¹ s⁻¹ | fold binding difference between hTSLP and cyTSLP [2]: < 10 fold | fold lower binding affinity against comparator QB10985 [3]: 8.8 fold

B2: anti-hIL-33 IgG4 antibody QB11465 (antibody)
heavy: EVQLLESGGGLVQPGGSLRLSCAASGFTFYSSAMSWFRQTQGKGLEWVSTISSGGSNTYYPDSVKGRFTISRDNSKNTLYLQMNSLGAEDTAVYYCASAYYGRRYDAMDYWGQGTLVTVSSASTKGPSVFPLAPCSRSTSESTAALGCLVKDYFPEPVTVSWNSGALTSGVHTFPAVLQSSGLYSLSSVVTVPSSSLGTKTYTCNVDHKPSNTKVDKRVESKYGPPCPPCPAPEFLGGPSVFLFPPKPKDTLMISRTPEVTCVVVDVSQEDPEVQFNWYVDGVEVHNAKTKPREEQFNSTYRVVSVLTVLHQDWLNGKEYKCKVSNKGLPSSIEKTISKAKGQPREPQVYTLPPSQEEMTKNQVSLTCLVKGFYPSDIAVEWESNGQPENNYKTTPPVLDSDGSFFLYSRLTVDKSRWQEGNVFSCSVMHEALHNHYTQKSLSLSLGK
light: DVVMTQSPPSLPVTLGQSASISCKSSESLLHSNANTYLYWFQQRPGQSPQLLIYRGSNLASGVPDRFSGSGSGTDFTLKISRVEAEDVGVYYCMQHLRNPYTFGQGTKVEIKRTVAAPSVFIFPPSDEQLKSGTASVVCLLNNFYPREAKVQWKVDNALQSGNSQESVTEQDSKDSTYSLSSTLTLSKADYEKHKVYACEVTHQGLSSPVTKSFNRGEC
notes: also called lead anti-hIL-33 IgG4 antibody
Kd [4]: 5.14 nM | koff [4]: 0.00191 s⁻¹ | kon [4]: 371000 M⁻¹ s⁻¹ | fold improvement of affinity against parental antibody QB11119 [5]: ~3 fold | IC50, inhibition of cyIL-33-induced p38 MAPK phosphorylation in ILC2s (FIG. 17D) [6]: 4.4 nM | IC50, inhibition of hIL-33-induced IFNγ secretion from primary human NK cells [7]: 1 nM | IC50, inhibition of hIL-33-induced hIL-5 secretion from primary human ILC2 cells [7]: 2.39 nM | IC50, inhibition of hIL-33-induced p38 MAPK phosphorylation in ILC2s (FIG. 17C) [7]: 0.33 nM | IC50, inhibition of hIL-33-induced p38 MAPK phosphorylation in ILC2s (FIG. 17D) [7]: 0.82 nM | Kd [8]: 0.209 nM | koff [8]: 0.000695 s⁻¹ | kon [8]: 3.33e+06 M⁻¹ s⁻¹

B3: humanized anti-hIL-33 antibody QB11004 (antibody, human IgG1, kappa, V domains shown)
VH: EVQLLESGGGLVQPGGSLRLSCAASGFTFYSSAMSWVRQTQGKGLEWVSTISSGGSNTYYPDSVKGRFTISRDNSKNTLYLQMNSLGAEDTAVYYCASAYYGRRYDAMDYWGQGTLVTVSS
VL: DVVMTQSPPSLPVTLGQSASISCKSSKSLLHSNGNTYLYWFQQRPGQSPQLLIYRMSNLASGVPDRFSGSGSGTDFTLKISRVEAEDVGVYYCMQHLENPYTFGQGTKVEIKR
IC50 [9]: 0.927 nM | Kd [4]: 6.22 nM | koff [4]: 0.000992 s⁻¹ | kon [4]: 160000 M⁻¹ s⁻¹ | Kd [8]: 0.387 nM | koff [8]: 0.000628 s⁻¹ | kon [8]: 1.62e+06 M⁻¹ s⁻¹

B4: anti-hIL-33 antibody QB11119 (antibody, human IgG1, kappa, L234A L235A, V domains shown)
VH: EVQLLESGGGLVQPGGSLRLSCAASGFTFYSSAMSWVRQTQGKGLEWVSTISSGGSNTYYPDSVKGRFTISRDNSKNTLYLQMNSLGAEDTAVYYCASAYYGRRYDAMDYWGQGTLVTVSS
VL: DVVMTQSPPSLPVTLGQSASISCKSSKSLLHSNANTYLYWFQQRPGQSPQLLIYRMSNLASGVPDRFSGSGSGTDFTLKISRVEAEDVGVYYCMQHLENPYTFGQGTKVEIKR
notes: hIgG1 with L234A+L235A+P329A; G29A in the VL against QB11061; also called parental antibody QB11119
Kd [4]: 15.8 nM | koff [4]: 0.00206 s⁻¹ | kon [4]: 131000 M⁻¹ s⁻¹ | Kd [8]: 0.397 nM | koff [8]: 0.000604 s⁻¹ | kon [8]: 1.52e+06 M⁻¹ s⁻¹
